What was measured:
[1] = test system: Meth A-specific CD4+ T cell clone 24D3 with irradiated BALB/c splenocytes; experiment: Meth A in vitro antigen representation assay; assay type: cell-based, mouse (BALB/c); settings: Meth A gp96; versus matched preparation without buffer exchange; IL-5 ELISA
Text: Materials: irradiated BALB/c splenocytes were used as the Antigen Presenting Cells (APCs). The Meth A-specific CD4^+ T cell clone, 24D3, was used. They are restricted by the MHClI molecule I-Ed, and are specific for the antigenic peptide contained within the sequence […]. The medium used for this assay was RPMI 1640 (Gibco-BRL). […] The wild-type form of the L 1 peptide ([…]) was used as a negative control, and the mutated form of the L11 peptide ([…]) was used as the positive control.
The resulting supernatant was further purified using Con A and DEAE chromatography.
Re-Presentation Assay: 2×104 of Meth A specific CD4^+ T cell clones (24D3) were incubated with 5×105 of irradiated BALB/c splenic APCs in the presence of various concentration of gp96 derived from Meth A or other sources (100, 50, 25, 12.5, 6.25 μg/ml final concentration) for 48-72 hrs in the 96 well flat bottom plate in 200 μl of final volume. Wild type ribosomal protein L11 peptide and mutated ribosomal protein L11 peptide were added in replicate wells and used as a negative control or positive control respectively. After 48-72 hours of incubation at 37° C., 5% CO2, 100 μl of supernatant was taken and IL-5 production was measured by ELISA.

Meth A cells = experiment: In vivo Meth A tumor inhibition (tumor protection / rejection) assay; design: species or system BALB/c mice; settings: Meth A gp96, dose of 10 μg intradermally day 0 and 7; versus matched preparation without buffer exchange
Experimental: (§1) In vivo Meth A growth inhibition assay: BALB/c mice (n=30/group) were immunized on day 0 and day 7 with 10 or 50 μg of gp96 intradermally in the flank. On study day 14, mice were challenged with 1×10^5 Meth A cells intradermally in a total volume of 100 μl. Growing tumors were monitored during the subsequent four weeks. All animals were euthanized on study day 41 after a final tumor measurement. Data was reported as percentage of animals that are tumor-free on study day 41. Control groups included un-immunized (diluent—negative control) and immunized with irradiated Meth A cells (positive control).
as §1, with “(n=10/group)” for “(n=30/group)”, “10” for “10 or 50”, “gl.” for “μl.”
as §1, with “(n=10/group)” for “(n=30/group)”, “10” for “10 or 50”
as §1, with “mice (n=10/group)” for “mice (n=30/group)”, “with 0.3” for “with 10”, “or 3” for “or 50”, “gp96 alone or in combination with Con A” for “gp96”

B1: Meth A gp96 (Bx): Meth A gp96 prepared with buffer exchange step between Con A and DEAE columns, increased Con A content (protein, UniProt P08113 22-802, looked up)
Endoplasmin: DDEVDVDGTVEEDLGKSREGSRTDDEVVQREEEAIQLDGLNASQIRELREKSEKFAFQAEVNRMMKLIINSLYKNKEIFLRELISNASDALDKIRLISLTDENALAGNEELTVKIKCDKEKNLLHVTDTGVGMTREELVKNLGTIAKSGTSEFLNKMTEAQEDGQSTSELIGQFGVGFYSAFLVADKVIVTSKHNNDTQHIWESDSNEFSVIADPRGNTLGRGTTITLVLKEEASDYLELDTIKNLVRKYSQFINFPIYVWSSKTETVEEPLEEDEAAKEEKEESDDEAAVEEEEEEKKPKTKKVEKTVWDWELMNDIKPIWQRPSKEVEEDEYKAFYKSFSKESDDPMAYIHFTAEGEVTFKSILFVPTSAPRGLFDEYGSKKSDYIKLYVRRVFITDDFHDMMPKYLNFVKGVVDSDDLPLNVSRETLQQHKLLKVIRKKLVRKTLDMIKKIADEKYNDTFWKEFGTNIKLGVIEDHSNRTRLAKLLRFQSSHHSTDITSLDQYVERMKEKQDKIYFMAGSSRKEAESSPFVERLLKKGYEVIYLTEPVDEYCIQALPEFDGKRFQNVAKEGVKFDESEKTKESREATEKEFEPLLNWMKDKALKDKIEKAVVSQRLTESPCALVASQYGWSGNMERIMKAQAYQTGKDISTNYYASQKKTFEINPRHPLIRDMLRRIKEDEDDKTVMDLAVVLFETATLRSGYLLPDTKAYGDRIERMLRLSLNIDPEAQVEEEPEEEPEDTSEDAEDSEQDEGEEMDAGTEEEEEETEKESTEKDEL
modifications: tumor-derived; contains Con A
notes: Meth A gp96 prepared with buffer exchange step between Con A and DEAE columns, increased Con A content
[1]
  in vitro activity in the Meth A representation assay: higher in vitro antigen representation
Meth A cells
  in vivo tumor protection activity: higher in vivo tumor protection activity

— patent US20040258705A1, “Use of lectins to promote oligomerization of glycoproteins and antigenic molecules” (Antigenics Inc., priority 2003, published 2004)
